1 substance from patent US20100197582A1 can be followed below.

The test deals with human GHR stably expressed in human 293 cells (human) (UniProt P10912). Briefly: cell-based or functional assay.
Chain of UniProt P10912 (P10912 19-638): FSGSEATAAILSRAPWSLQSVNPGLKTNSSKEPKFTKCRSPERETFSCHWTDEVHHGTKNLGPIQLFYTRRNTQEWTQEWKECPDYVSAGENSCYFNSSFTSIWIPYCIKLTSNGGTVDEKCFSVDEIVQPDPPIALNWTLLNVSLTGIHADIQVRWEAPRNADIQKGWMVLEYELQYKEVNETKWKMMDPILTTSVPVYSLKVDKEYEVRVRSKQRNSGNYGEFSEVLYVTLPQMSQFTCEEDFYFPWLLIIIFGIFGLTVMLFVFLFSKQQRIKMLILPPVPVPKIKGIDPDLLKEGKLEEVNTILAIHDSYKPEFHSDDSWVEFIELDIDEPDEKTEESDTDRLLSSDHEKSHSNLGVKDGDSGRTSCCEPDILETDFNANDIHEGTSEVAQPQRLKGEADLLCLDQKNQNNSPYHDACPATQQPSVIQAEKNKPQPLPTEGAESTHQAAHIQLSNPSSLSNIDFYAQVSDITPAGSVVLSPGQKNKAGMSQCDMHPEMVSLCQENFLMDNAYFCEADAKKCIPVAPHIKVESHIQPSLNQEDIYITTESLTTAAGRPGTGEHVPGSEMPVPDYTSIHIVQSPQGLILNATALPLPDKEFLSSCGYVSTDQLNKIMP

Substance “LR-fusion (human GH linked to the A & B domains of the GHR extracellular domain, exGHR1-238, via a (Gly4Ser)4 linker) (from UniProt P01241 27-217; P10912 1-238)” displayed a bioactivity in GH-specific luciferase reporter assay (Stat 5 luciferase reporter), relative to GH of 10% and a concentration giving maximal response, Stat 5 luciferase-reporter assay of 50 to 250 nM.
